According to article PMC5953937:

Target: lipin 1 (UniProt Q14693)
Assay: co-immunoprecipitation (presumed)
Details: reference: wild-type Tip60; sites S86

## Tip60 (from UniProt Q92993) S86A-Tip60
  binding against the reference: weaker
